Two molecules from patent US20250197503A1 (published 2025) can be followed below.

This test addresses human PD-L1 on stably transfected cell line HEK293T/hPD-L1 (human, UniProt Q9NZQ7 19-290). Nature of the test: FACS blocking of human PD-1/PD-L1 binding.

human PD-L1 on stably transfected cell line HEK293T/hPD-L1, sequence (Q9NZQ7 19-290): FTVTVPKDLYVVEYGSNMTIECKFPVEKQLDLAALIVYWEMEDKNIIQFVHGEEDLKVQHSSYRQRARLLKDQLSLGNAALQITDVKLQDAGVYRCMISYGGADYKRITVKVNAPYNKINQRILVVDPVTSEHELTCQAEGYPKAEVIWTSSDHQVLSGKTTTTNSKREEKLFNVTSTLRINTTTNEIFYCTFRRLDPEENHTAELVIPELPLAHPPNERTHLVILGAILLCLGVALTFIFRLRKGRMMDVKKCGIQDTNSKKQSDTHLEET

B1: h_Nb2 (expressed from pFUSE-hIgG1-Fc) (Fc fusion)
chain: DVQLQESGGGLVQPGGSLRLSCAASGFTFGDRWMYWLRQAPGKGLEWVSSINPAGRSTYYADSVKGRFTISRDNAKNTLYLQMNSLKSEDTAVYYCTKDPGGYQKGQGTQVTVSS
In turn, B1 had an IC50 of 0.106 µg/mL.

B2: h_Nb1 (expressed from pFUSE-hIgG1-Fc) (Fc fusion)
chain: DVQLQESGGGLVQPGGSLRLSCAASGFTFSSYAMSWVRQAPGKGLEWVSDINSGGDNTDYADSVKGRFTISRDNAKNTLYLQMNSLKPEDTAVYYCARGPKLCFSSWGQGTQVTVSS
In turn, B2 came in with an IC50 of 0.751 µg/mL.
